Results taken from US9175053.

Target: ubiquitylated alpha-synuclein(1-17) model peptide 8 (desulfurized ligation product of synthetic Ub-SR 5 and peptide 7), P37840

B1: recombinant human ubiquitin C-terminal hydrolase L3 (protein)
chain: MEGQRWLPLEANPEVTNQFLKQLGLHPNWQFVDVYGMDPELLSMVPRPVCAVLLLFPITEKYEVFRTEEEEKIKSQGQDVTSSVYFMKQTISNACGTIGLIHAIANNKDKMHFESGSTLKKFLEESVSMSPEERARYLENYDAIRVTHETSAHEGQTEAPSIDEKVDLHFIALVHVDGHLYELDGRKPFPINHGETSDETLLEDAIEVCKKFMERDPDELRFNAIALSAA
- enzymatic cleavage of isopeptide (hydrolysis followed by C-4 analytical RP-HPLC, 12 hours at 37 C): a complete hydrolysis was achieved
